The DeepSol protein solubility set

Assay: soluble on expression in E. coli; label from the status in PepcDB or PDB records

For “MGSDKIHHHHHHMIIDTSCYPTNLVDLAWRHDGEPFSGERLIQMMDGPFTINGKPRRIDKAFIQPPQGNTIYTWTDGEKSGSESIDAYMAYTVEMVKKYPDRFIGCFVYNPRCGVQNGVNAIEHYVKTLGFKMVQFQANMHAYRPDRALDWLRPALQKCAELGVLVKLHTGDGPYSIPTEWVPMMKEFPTVNFIMAHFGVQTGGVYCFEPFQMAMDMPNVYCESGWCLQSRIVEFAKVLPKHKILFGSDTPPNEPGMWLRLLEVLCFEPPQGLNLDEDTLEDYLGNNVARMIGLEPTPVPRTLEEARARLAA”, which “soluble on expression in E. coli” value is on record?
The value was “not soluble”.

Which “soluble on expression in E. coli” value does the source give for “MGSDKIHHHHHHMTFMPEKRNADLLFRGFSKTRLMVITLIAVNGPMTVTQLSKVIKTTRSNLYQAIKEMVSDGILVQTRTVSEKNYVEKFYDINTDLFDAIKYGDIRKAIEEMDEDKLRNILYSFLRSASAILSIMAEQVNLSNKDDLDKYVDYVRKNLLIISFSTHSTKDMSKFSSMLSNFFTEIDDDNDEKKDEHLLYIVGFPILNQMGFISKSRHEKLTGDGKE” here?
The value was “not soluble”.

With “MNPRQAFFACLHRSPPALLEAALWIAAEHDPQVVPGLLLEEFKQLQQQVGSSLPTLPANELGQPLLRRLNDLGFQQDEHLPLRPQAALMDKVLERRRGQPLALALIALELAQRLQVPLAGVNFPGHFLLRVPGADHLLDPCGGRRLYPNDCRELLQRQYGAHIKLSAEHLASAEPLQMFQRLSRNLRQLHLSYDDHLGALINAERVLEIGNGSAADYLARASLYQRLECPNAERFDLEHALLLSDDPIQRLRLTERLGHLPPNTIVHLEHHHHHH” as the sequence, how does the “soluble on expression in E. coli” value read?
The value was “soluble”.

With “DDFETSLTELEPLEKDAYIVRLVFAGSTTTEPIVSSLSTAYDIKINILEANIKNTKNGTVGFLVLHIPYISSVDFGKFEKELIERQVKMEVLRHG” as the sequence, how does the “soluble on expression in E. coli” value read?
The value was “soluble”.

Which “soluble on expression in E. coli” value does the source give for “MKMKYEWRKQEKTTYATKKQPQLLTIPAQTFMSIHGTGNPNGPEFQTHLQTLYPAAYGLKHAYKQYAQTQACEFDDYVVFPLEGVWSLTIKGQQLDHLDKDEFSYDIMIRVPDFVPNELIAPALAAVKAKKQLPTEQINVQQFDAMQVAQILHLGAYDDEPASFAKIDELVANQGMHRTSKIHREIYLSDARRVAPDKLKTILRYRVASN” here?
The value was “not soluble”.

With “MSLKQEKERILKLVEEGKLTAQEALTLIEKLDSDYKEKEEKITALSVHVHDEEEPFTTAKKESGKPSLGAKLFDWIDSAVKKVKEVDLDLNFGHAYDVQHIFQFKDTDFSSVELQIANGSVNIVPWEDDDIRAECQAKVYRADSQDAARHAFLQHIECEIKGNKFFIRTEKKTMKTNVTLYIPQKEYDKIRVKLFNGPVRGEHLHVKEFSAKTTNGVLSFSYLTAEKAIAETANGQIKLASHSCGTIEAETINGLIDLRGKSESIDVQSFNGNIAINVTESDCRSIYAKTTTGNVELAIPDDLAVKAELKSNLGTLSHELMDVEMLKEKNDTIQKEMMFTSNQAHDQNITVFSESLTGAIKLKYSQREGGSHHHHHH” as the sequence, how does the “soluble on expression in E. coli” value read?
The value was “soluble”.

For “SSQPDPTPEQLNKSSQFTGVMGNLRCLYDNHFVEGTNVRSTGQLLQHDLIFPIKDLKLKNYDSVKTEFNSKDLATKYKNKDVDIFGSNYYYNCYYSEGNSCKNAKKTCMYGGVTEHHRNQIEGKFPNITVKVYEDNENILSFDITTNKKQVTVQELDCKTRKILVSRKNLYEFNNSPYETGYIKFIESSGDSFWYDMMPAPGAIFDQSKYLMLYNDNKTVSSSAIAIEVHLTKK”, which “soluble on expression in E. coli” value is on record?
The value was “soluble”.

With “AIASAEAADREAVSGSRPCTPPQTSWFEFLLNPSLLEQHLHSPHPDPSPVQLIFQFLEQASKPSVNEQNQVQPPVDNRRNRTLKLMALKVAAHLRWDLNMLEKGLTIPVLNMLLNELLCVSHVPPGVKHVDLDLSSLPPTTAMAVVFYNRWAIRTIVLSSFPEKQTKPGPHQLNMMNMLQQEKEHTENILSVLREQATDSIMVLEGALSIKKDFYIHL” as the sequence, how does the “soluble on expression in E. coli” value read?
Its value is “soluble”.

For “MALILTFLGKSGVARTKIAIAAAKLLASQGKRVLLAGLAEPVLPLLLEQTLTPDPQQIAPNLEVVQFQSSVLLERNWEEVKKLEAQYLRTPIIKEVYGQELVVLPGMDSALALNAIREYDASGKYDAIVYDGTGDAFTLRMLGLPESLSWYVRRFRQLFVNSDLGKTIAESPLIQPLISSFFNVNWTADNFAQPTNQVNNFLDKGKEALADPKRVAAFLVTTADPLEVVSVRYLWGSAQQIGLTIGGVIQVSSQTEGDLSAEFTPLEHHHHHH”, which “soluble on expression in E. coli” value is on record?
The value was “not soluble”.
